Where two headings read alike, the source gives them in different places. One block for each substance: values may come before it.
How the values were obtained:
[1] = target: non-glycosylated Q123K PAI-1 (human) (UniProt P05121)
[2] = target: wild type recombinant non-glycosylated PAI-1 (human) (UniProt P05121)
[3] = target: wild type glycosylated PAI-1 (human) (UniProt P05121)
[4] = target: S119C (NBD S119C) PAI-1 (human) (UniProt P05121); assay: stopped-flow fluorimetry
[5] = target: S119C (NBD S119C) PAI-1 (human) (UniProt P05121); assay: stopped-flow fluorimetry; remark: listed apart in the source
[6] = target: complex of NBD S119C PAI-1 with S195A tcuPA (UniProt P05121); assay: stopped-flow fluorimetry
[7] = target: non-glycosylated Q123K PAI-1 (human) (UniProt P05121); assay: competition read by tPA amidolytic activity
[8] = target: wild type glycosylated PAI-1 (human) (UniProt P05121); assay: competition read by tPA amidolytic activity
[9] = target: complex of wt rPAI-1 with Vn (UniProt P05121)
[10] = target: non-glycosylated Q123K PAI-1 (human) (UniProt P05121); assay: competition read by tPA amidolytic activity; remark: listed apart in the source
[11] = target: M447C (NBD P1′) PAI-1 (human); assay: stopped-flow fluorimetry
M447C (NBD P1′) PAI-1 = assay: stopped-flow fluorimetry; conditions: other: stopped-flow fluorimetry

kL2 (spontaneous inactivation of Q123K PAI-1 with Vn), 37°C [1]: 0.00018 s⁻¹
kL2 (spontaneous inactivation of Q123K PAI-1 with Vn), 50°C [1]: 0.0081 s⁻¹
kL2 (spontaneous inactivation of Q123K PAI-1 with Vn), 55°C [1]: 0.0109 s⁻¹
kL2 (spontaneous inactivation of Q123K PAI-1 with Vn), 60°C [1]: 0.0222 s⁻¹
kL2 (spontaneous inactivation of PAI-1 with Vn), 60°C [2]: 0.011 s⁻¹
kL2 (spontaneous inactivation of PAI-1 with Vn), 37°C [3]: 3.6e-05 s⁻¹
kL2 (spontaneous inactivation of PAI-1 with Vn), 50°C [3]: 0.00043 s⁻¹
kL2 (spontaneous inactivation of PAI-1 with Vn), 55°C [3]: 0.001 s⁻¹
kL2 (spontaneous inactivation of PAI-1 with Vn), 60°C [3]: 0.0049 s⁻¹
kon [4]: 7.5e+06 M⁻¹ s⁻¹
koff [5]: 0.0022 to 0.0072 s⁻¹
kon [5]: 7.2e+06 M⁻¹ s⁻¹
kon [6]: 1.33e+07 M⁻¹ s⁻¹
Substance: Monomeric vitronectin (natural protein)

Kd [7]: 1.3 nM
Kd [8]: 1.2 nM
kL3 (spontaneous inactivation of Q123K PAI-1 with S195A tcuPA), 37°C [1]: 5e-05 s⁻¹
kL3 (spontaneous inactivation of Q123K PAI-1 with S195A tcuPA), 50°C [1]: 0.00066 s⁻¹
kL3 (spontaneous inactivation of Q123K PAI-1 with S195A tcuPA), 60°C [1]: 0.00122 s⁻¹
kL4 (spontaneous inactivation of PAI-1 with Vn and S195A tcuPA), 37°C [9]: 3.4e-06 s⁻¹
kL4 (spontaneous inactivation of PAI-1 with Vn and S195A tcuPA), 50°C [9]: 0.00011 s⁻¹
kL4 (spontaneous inactivation of PAI-1 with Vn and S195A tcuPA), 55°C [9]: 0.00012 s⁻¹
kL4 (spontaneous inactivation of PAI-1 with Vn and S195A tcuPA), 60°C [9]: 0.00042 s⁻¹
kL3 (spontaneous inactivation of PAI-1 with S195A tcuPA), 50°C [3]: 0.00024 s⁻¹
kL3 (spontaneous inactivation of PAI-1 with S195A tcuPA), 60°C [3]: 0.0025 s⁻¹
Kd [10]: 1.3 nM
Kd [11]: 24.6 nM
koff [11]: 0.15 s⁻¹
kon [11]: 6.1e+06 M⁻¹ s⁻¹
Substance: S195A two chain urokinase (S356A; S195A in chymotrypsin numbering) (enzyme)

Substance: recombinant two chain urokinase
KM (M447C (NBD P1′) PAI-1): 10.2 ± 2.2 µM

kon [11]: 2.68e+07 M⁻¹ s⁻¹
Substance: recombinant two chain urokinase (enzyme)
